Patent publication US20070154905A1 (YEDA RESEARCH AND DEVELOPMENT, published 2007)
Changes are numbered by the printed parent chain. Numbers in names are those of the source.

B1: MACH (construct with the full-length MACH cDNA) (other)
chain: MDFSRNLYDIGEQLDSEDLASLKFLSLDYIPQRKQEPIKDALMLFQRLQEKRMLEESNLSFLKELLFRINRLDLLITYLNTRKEEMERELQTPGRAQISAYRVMLYQISEEVSRSELRSFKFLLQEEISKCKLDDDMNLLDIFIEMEKRVILGEGKLDILKRVCAQINKSLLKIINDYEEFSKERSSSLEGSPDEFSNDFGQSLPNEKQTSGILSDHQQSQFCKSTGESAQTSQH
notes: also called MORT-2
B2: MACHβ1 (ORF-B of MACH) (other)
chain: B1 chain
notes: Gal4 fusion in two-hybrid tests; also called MACH B; MACH ORF-B
B3: MORT-1 protein (full-length) (other)
chain: VNQAPECRFGGGILGPLGKRRDLARASEPRTEGARRAGPQPRPLADPAMDPFLVLLHSVSSSLSSSELTELKFLCLGRVVKRKLERVQSGLDLFSMLLEQNDLEPGHTELLRELLASLRRHDLLRRVDDFEAGAAAGAAPGEEDLCAAFNVICDNVGKDWRRLARQLKVSDTKIDSIEDRYPRNLTERVRESLRIWKNTEKENATVAHLVGALRSCQMNLVADLVQEVQQARDLQNRSGAMSPMSWNSDASTSEAS
notes: Full-length construct; also called HF1; FADD
B4: MACHα1 mutant in which the catalytic cysteine Cys360 is replaced by Ser (enzyme)
chain: MDFSRNLYDIGEQLDSEDLASLKFLSLDYIPQRKQEPIKDALMLFQRLQEKRMLEESNLSFLKELLFRINRLDLLITYLNTRKEEMERELQTPGRAQISAYRVMLYQISEEVSRSELRSFKFLLQEEISKCKLDDDMNLLDIFIEMEKRVILGEGKLDILKRVCAQINKSLLKIINDYEEFSKERSSSLEGSPDEFSNGEELCGVMTISDSPREQDSESQTLDKVYQMKSKPRGYCLIINNHNFAKAREKVPKLHSIRDRNGTHLDAGALTTTFEELHFEIKPHDDCTVEQIYEILKIYQLMDHSNMDCFICCILSHGDKGIIYGTDGQEAPIYELTSQFTGLKCPSLAGKPKVFFIQASQGDNYQKGIPVETDSEEQPYLEMDLSSPQTRYIPDEADFLLGMATVNNCVSYRNPAEGTWYIQSLCQSLRERCPRGDDILTILTEVNYEVSNKDDKKNMGKQMPQPTFTLRKKLVFPSD
notes: Gal4 fusion in two-hybrid tests; also called MACHα1 (C360S); MACHα (C360S)
B5: intracellular domain of human p55 TNF receptor (residues 206-426) (receptor, UniProt P19438 235-455, looked up)
chain: RYQRWKSKLYSIVCGKSTPEKEGELEGTTTKPLAPNPSFSPTPGFTPTLGFSPVPSSTFTSSSTYTPGDCPNFAAPRREVAPPYQGADPILATALASDPIPNPLQKWEDSAHKPQSLDTDDPATLYAVVENVPPLRWKEFVRRLGLSDHEIDRLELQNGRCLREAQYSMLATWRRRTPRREATLELLGRVLRDMDLLGCLEDIEEALCGPAALPPAPSLLR
notes: range 206-426; Gal4 fusion in two-hybrid tests; also called p55-IC; p55 IC
B6: MORT-1 fragment, amino acids 1-117 (N-terminal part) (other)
chain: VNQAPECRFGGGILGPLGKRRDLARASEPRTEGARRAGPQPRPLADPAMDPFLVLLHSVSSSLSSSELTELKFLCLGRVVKRKLERVQSGLDLFSMLLEQNDLEPGHTELLRELLAS
notes: Gal4 fusion in two-hybrid tests; also called MORT-1 head; MORT 'head'

Tests used:
[1] = molecular target: B3; test: yeast two-hybrid, β-galactosidase filter assay
Protocol: (§1) The yeast two-hybrid test was further applied to evaluate the specificity of binding of MACH to MORT-1, in particular, to define the region in MORT-1 to which MACH binds, as well as to determine which of the MACH ORFs interacts with MORT-1, the procedures being as set forth herein above in Examples 1 and 2. Briefly, various MORT-1 and MACH constructs were prepared for testing the interaction of the proteins encoded by the Gal4 DNA-binding domain and activation domain constructs within transfected SFY526 yeast cells as assessed by the β-galactosidase expression filter assay. The DNA-binding domain constructs were prepared in pGBT9 vectors and the activation domain constructs were prepared in pGAD-GM vectors. For the activation domain constructs, the full-length MACH cDNA was used (MACH), as was a construct encoding only the ORF-B (MACH B) region. Control activation domain constructs were those containing the full-length MORT-1 coding sequence (MORT 1, positive control) and those having no inserts, i.e., “empty” vectors (pGAD-GM). […] Control DNA-binding domain constructs, which were constructed to determine also the specificity of the MACH binding, included constructs encoding lamin (Lamin), residues 287-461 of the intracellular domain of the human p75 TNF-R (human p75 IC), cyclic D (cycD), SNF1, residues 206-426 of the intracellular domain of the human p55 TNF-R (human p55 IC), the ‘death domain’ region of the intracellular domain of the human Fas-R (human Fas DD), residues 216-277 of the intracellular domain of the human CD40 (human CD40 IC), vectors without insert or “empty” pGBT9 vectors (pGBT9, negative control), and a construct encoding the ORF-B region of MACH (MACH B). In the assay, the development of color was determined, where the greater the color development, the greater the interaction between the constructs encoded by the DNA-binding domain and activation domain; Color development was depicted by symbols, where “+++” and “+” indicate the development of a strong color within 30 and 90 min. of the assay, respectively, and “−−−” indicates the lack of development of color within 24 hrs. of the assay. In cases where interactions were not tested, no symbol was indicated.

MACHα1 [2] = molecular target: T1, MACHα1 (human, UniProt Q14790 1-479); test: yeast two-hybrid
T1 construct: Gal4 fusion in two-hybrid tests; also called wild-type MACHα1
Protocol: (§2) In FIG. 5, there is shown the results of the interaction of MORT-1 and MACH within transfected yeast cells. Briefly, MORT-1 and MACHβ1 and their deletion constructs, as well as MACHα1, a MACHα1 mutant in which the catalytic cysteine Cys₃₆₀ is replaced by Ser (MACHα1 (C360S)) and the intracellular domain of human FAS-R (Fas-IC), were expressed within transfected SFY526 yeast in Gal4 DNA binding domain and activation domain constructs (pGBT9 and pGAD-GH). Their interaction was assessed by a β-galactosidase expression filter assay as described in Boldin et al (1995b). The results are presented in terms of the time required for the development of strong color. […] None of the inserts examined interacted with a number of tested negative controls, including the intracellular domains of human p55 TNF receptor, p75 TNF receptor and CD40, and lamin, cyclin D and ‘empty’ Gal4 vectors. MACHβ1 was cloned by two hybrid screening of a Gal4 AD-tagged human B cell library (Durfee et al, 1993) for proteins that bind to MORT-1, using the HF7c Yeast reporter strain. Except where otherwise indicated, all experimental procedures for the findings presented are as described above (see also Boldin et al, 1995). […] MACHβ1 also self-associated in the transfected yeast. […] Expression of MACHβ1 molecules in mammalian cells yielded a 34 kDa protein that bound to MORT-1 molecules co-expressed with it. It was also able to bind to a GST-MORT-1 fusion protein in vitro.

[3] = molecular target: B4; test: yeast two-hybrid
Protocol: as §2

[4] = molecular target: B5; test: yeast two-hybrid, β-gal filter assay (FIG. 5)
[5] = molecular target: the molecule itself; test: yeast two-hybrid, β-galactosidase filter assay
Protocol: as §1

[6] = molecular target: T2, MORT-1 fragment, amino acids 130-245 (C-terminal part with the death domain homology region) (human, UniProt Q13158 82-197); test: yeast two-hybrid, β-galactosidase test (FIG. 1)
T2 construct: Gal4 fusion in two-hybrid tests; expressed untagged in HeLa cells for the cytotoxicity test; also called MORT-1 DD; MORT-1 dd
T2 sequence: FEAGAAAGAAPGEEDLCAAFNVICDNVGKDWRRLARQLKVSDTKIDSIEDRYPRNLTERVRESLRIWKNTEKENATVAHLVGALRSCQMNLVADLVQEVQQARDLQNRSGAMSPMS

[7] = molecular target: T3, mouse Fas-IC with replacement mutation I225N (mouse, UniProt P25446 187-327); test: yeast two-hybrid, β-galactosidase test (FIG. 1)
T3 construct: domain: intracellular domain; The text calls the change 'Ile to Leu' but labels it I225N; also called lpr^eg mutation
T3 sequence (looked up): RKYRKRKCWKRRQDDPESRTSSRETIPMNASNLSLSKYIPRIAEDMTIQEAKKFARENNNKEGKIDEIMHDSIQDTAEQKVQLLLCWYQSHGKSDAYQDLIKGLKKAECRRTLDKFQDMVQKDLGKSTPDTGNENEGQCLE

[8] = molecular target: T4, mouse Fas-IC with replacement mutation I225A (mouse, UniProt P25446 187-327); test: yeast two-hybrid, β-galactosidase test (FIG. 1)
T4 construct: domain: intracellular domain
T4 sequence (looked up): T3 sequence (looked up) with N60A

[9] = molecular target: B5; test: yeast two-hybrid, β-galactosidase test (FIG. 1)
MACHβ1 (ORF-B of MACH) = molecular target: B2; test: yeast two-hybrid, β-galactosidase filter assay
Protocol: as §1

[10] = molecular target: T5, 'empty' Gal4 DNA-binding-domain vector pGBT9 (UniProt P04386 1-147); test: yeast two-hybrid, β-galactosidase test (FIG. 1); empty pGBT9 is named as a negative control in paragraph 206
T5 construct: Negative control
T5 sequence (P04386 1-147 limits assumed): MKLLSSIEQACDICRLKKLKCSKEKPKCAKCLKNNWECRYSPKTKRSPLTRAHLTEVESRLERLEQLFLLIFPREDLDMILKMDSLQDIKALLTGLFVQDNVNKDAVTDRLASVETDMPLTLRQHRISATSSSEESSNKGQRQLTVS

yeast two-hybrid = molecular target: the molecule itself; test: yeast two-hybrid
Protocol: as §2

MACHα1 [11] = molecular target: T1, MACHα1; test: yeast two-hybrid, β-gal filter assay (FIG. 5)
[12] = molecular target: B4; test: yeast two-hybrid, β-gal filter assay (FIG. 5)
[13] = molecular target: the molecule itself; test: yeast two-hybrid, β-galactosidase test (FIG. 1)

B1
time to development of strong color (beta-galactosidase filter assay, yeast two-hybrid) [1]: ≤ 30 min

B2
binding result (MACHα1 [2]): binds
binding result [3]: binds
binding result [4]: no binding
time to development of strong color (beta-galactosidase filter assay, yeast two-hybrid) [1]: ≤ 30 min
time to development of strong color (beta-galactosidase filter assay, yeast two-hybrid) [5]: 30 to 90 min

B3
binding result [6]: no binding
binding result [7]: no binding
binding result [8]: no binding
binding result [9]: no binding
time to development of strong color (beta-galactosidase filter assay, yeast two-hybrid) (MACHβ1 (ORF-B of MACH)): 30 to 90 min
time to development of strong color (beta-galactosidase filter assay, yeast two-hybrid) [5]: ≤ 30 min
binding result [10]: no binding

B4
binding result (yeast two-hybrid): binds

B5
binding result (MACHα1 [11]): no binding
binding result [12]: no binding

B6
binding result [13]: no binding
